Experimental data from the supplement of paper PMC11316812.
± gives the standard deviation of the averaged measurements.

Key:
MCF7 = assay: percentage of EdU-negative (G0-arrested) nuclei per well, 72 h; higher = more G0 arrest; details: reference: sequence is the full UniProt precursor, the tested protein was the secreted form or ectodomain
hTERT-HMEC = assay: as above; details: reference: sequence is the full UniProt precursor, the tested protein was the secreted form or ectodomain
[1] = protein concentration 0.0354286 µM
[2] = protein concentration 0.354286 µM
[3] = protein concentration 0.02179 µM
[4] = protein concentration 0.2179 µM
[5] = protein concentration 0.02325 µM
[6] = protein concentration 0.2325 µM
[7] = protein concentration 0.0225 µM
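Note: secreted proteins added to cultured cells, EdU pulse at the end, nuclei found by Hoechst imaging, EdU status from nuclear versus surrounding ring intensity ratio, PBS as neutral control.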

**Q.** For “MDGLPGRALGAACLLLLAAGWLGPEAWGSPTPPPTPAAPPPPPPPGSPGGSQDTCTSCGGFRRPEELGRVDGDFLEAVKRHILSRLQMRGRPNITHAVPKAAMVTALRKLHAGKVREDGRVEIPHLDGHASPGADGQERVSEIISFAETDGLASSRVRLYFFISNEGNQNLFVVQASLWLYLKLLPYVLEKGSRRKVRVKVYFQEQGHGDRWNMVEKRVDLKRSGWHTFPLTEAIQALFERGERRLNLDVQCDSCQELAVVPVFVDPGEESHRPFVVVQARLGDSRHRIRKRGLECDGRTNLCCRQQFFIDFRLIGWNDWIIAPTGYYGNYCEGSCPAYLAGVPGSASSFHTAVVNQYRMRGLNPGTVNSCCIPTKLSTMSMLYFDDEYNIVKRDVPNMIVEECGCA”, which “percentage of EdU-negative” value (MCF7; [1]) is on record?
**A.** 24.4 ± 0.62%

**Q.** What about the “percentage of EdU-negative” value (MCF7; [2]) of the same sequence?
**A.** 29.05 ± 0.099%

**Q.** What about the “percentage of EdU-negative” value (hTERT-HMEC; [1]) of the same sequence?
**A.** 5.47 ± 0.17%

**Q.** What about the “percentage of EdU-negative” value (hTERT-HMEC; [2]) of the same sequence?
**A.** 8.73 ± 0.18%

**Q.** How did the “percentage of EdU-negative” value (MCF7; protein concentration 0.007 µM) turn out when “MDGWRRMPRWGLLLLLWGSCTFGLPTDTTTFKRIFLKRMPSIRESLKERGVDMARLGPEWSQPMKRLTLGNTTSSVILTNYMDTQYYGEIGIGTPPQTFKVVFDTGSSNVWVPSSKCSRLYTACVYHKLFDASDSSSYKHNGTELTLRYSTGTVSGFLSQDIITVGGITVTQMFGEVTEMPALPFMLAEFDGVVGMGFIEQAIGRVTPIFDNIISQGVLKEDVFSFYYNRDSENSQSLGGQIVLGGSDPQHYEGNFHYINLIKTGVWQIQMKGVSVGSSTLLCEDGCLALVDTGASYISGSTSSIEKLMEALGAKKRLFDYVVKCNEGPTLPDISFHLGGKEYTLTSADYVFQESYSSKKLCTLAIHAMDIPPPTGPTWALGATFIRKFYTEFDRRNNRIGFALAR” was run?
**A.** 27.1 ± 1.6%

**Q.** What about the “percentage of EdU-negative” value (MCF7; [3]) of the same sequence?
**A.** 24.9 ± 1.8%

**Q.** What about the “percentage of EdU-negative” value (MCF7; protein concentration 0.07 µM) of the same sequence?
**A.** 28.5 ± 1.1%

**Q.** What about the “percentage of EdU-negative” value (MCF7; [4]) of the same sequence?
**A.** 23.8 ± 2.5%

**Q.** And the “percentage of EdU-negative” value (hTERT-HMEC; protein concentration 0.007 µM)?
**A.** 4.96 ± 0.18%

**Q.** And the “percentage of EdU-negative” value (hTERT-HMEC; [3])?
**A.** 5 ± 0.54%

**Q.** What about the “percentage of EdU-negative” value (hTERT-HMEC; protein concentration 0.07 µM) of the same sequence?
**A.** 6.37 ± 0.25%

**Q.** What about the “percentage of EdU-negative” value (hTERT-HMEC; [4]) of the same sequence?
**A.** 5.45 ± 0.35%

**Q.** Which results are given for “MDLLQFLAFLFVLLLSGMGATGTLRTSLDPSLEIYKKMFEVKRREQLLALKNLAQLNDIHQQYKILDVMLKGLFKVLEDSRTVLTAADVLPDGPFPQDEKLKDAFSHVVENTAFFGDVVLRFPRIVHYYFDHNSNWNLLIRWGISFCNQTGVFNQGPHSPILSLMAQELGISEKDSNFQNPFKIDRTEFIPSTDPFQKALREEEKRRKKEEKRKEIRKGPRISRSQSEL [Q9H6E4]”?
**A.** percentage of EdU-negative (MCF7; [5]): 27.1 ± 0.79%; percentage of EdU-negative (MCF7; [6]): 26.7 ± 0.95%; percentage of EdU-negative (hTERT-HMEC; [5]): 5.552 ± 0.014%; percentage of EdU-negative (hTERT-HMEC; [6]): 6.34 ± 0.88%

**Q.** “MDLRDFYLLAALIACLRLDSAIAQELIYTIREELPENVPIGNIPKDLNISHINAATGTSASLVYRLVSKAGDAPLVKVSSSTGEIFTTSNRIDREKLCAGASYAEENECFFELEVVILPNDFFRLIKIKIIVKDTNDNAPMFPSPVINISIPENTLINSRFPIPSATDPDTGFNGVQHYELLNGQSVFGLDIVETPEGEKWPQLIVQQNLDREQKDTYVMKIKVEDGGTPQKSSTAILQVTVSDVNDNRPVFKEGQVEVHIPENAPVGTSVIQLHATDADIGSNAEIRYIFGAQVAPATKRLFALNNTTGLITVQRSLDREETAIHKVTVLASDGSSTPARATVTINVTDVNDNPPNIDLRYIISPINGTVYLSEKDPVNTKIALITVSDKDTDVNGKVICFIEREVPFHLKAVYDNQYLLETSSLLDYEGTKEFSFKIVASDSGKPSLNQTALVRVKLEDENDNPPIFNQPVIELSVSENNRRGLYLTTISATDEDSGKNADIVYQLGPNASFFDLDRKTGVLTASRVFDREEQERFIFTVTARDNGTPPLQSQAAVIVTVLDENDNSPKFTHNHFQFFVSENLPKYSTVGVITVTDADAGENKAVTLSILNDNDNFVLDPYSGVIKSNVSFDREQQSSYTFDVKATDGGQPPRSSTAKVTINVMDVNDNSPVVISPPSNTSFKLVPLSAIPGSVVAEVFAVDVDTGMNAELKYTIVSGNNKGLFRIDPVTGNITLEEKPAPTDVGLHRLVVNISDLGYPKSLHTLVLVFLYVNDTAGNASYIYDLIRRTMETPLDRNIGDSSQPYQNEDYLTIMIAIIAGAMVVIVVIFVTVLVRCRHASRFKAAQRSKQGAEWMSPNQENKQNKKKKRKKRKSPKSSLLNFVTIEESKPDDAVHEPINGTISLPAELEEQSIGRFDWGPAPPTTFKPNSPDLAKHYKSASPQPAFHLKPDTPVSVKKHHVIQELPLDNTFVGGCDTLSKRSSTSSDHFSASECSSQGGFKTKGPLHTRQCNSHSKSDNIPVTPQKCPSSTGFHIQENEESHYESQRRVTFHLPDGSQESCSDSGLGDHEPVGSGTLISHPLPLVQPQDEFYDQASPDKRTEADGNSDPNSDGPLGPRGLAEATEMCTQECLVLGHSDNCWMPPGLGPYQHPKSPLSTFAPQKEWVKKDKLVNGHTLTRAWKEDSNRNQFNDRKQYGSNEGHFNNGSHMTDIPLANLKSYKQAGGATESPKEHQL [Q9HC56]” was tested. Which “percentage of EdU-negative” value (MCF7; [7]) did it give?
**A.** 25.9 ± 2.1%

**Q.** What about the “percentage of EdU-negative” value (MCF7; protein concentration 0.225 µM) of the same sequence?
**A.** 32.9 ± 2.9%

**Q.** What about the “percentage of EdU-negative” value (hTERT-HMEC; [7]) of the same sequence?
**A.** 4.64 ± 0.43%

**Q.** And the “percentage of EdU-negative” value (hTERT-HMEC; protein concentration 0.225 µM)?
**A.** 13.4 ± 3.9%
